# Patent KR20210053410A
# Biological target: 개 인플루엔자 바이러스 H3N2 (Canine influenza virus H3N2)
# Experiment: cell-based or functional assay
binder,measurement,value
"개 인플루엔자 바이러스 단일클론항체 3E2 (antibody, V domains shown) VH: EVKLVESGGGLVQPGGSLRLSCATSGFTFTDYYMSWVRQPPGKALEWLGFIRNKANGYTTEYSASVKGRFTISRDNSQSILYLQMNTLRPEDSATYYCARDTPVARGVCLLGQGTLVTVSA VL: DIVMTQSPSSLAVSAGEKVTMSCKSSQSLLNSRTRQNYLAWYQQKPGQSPKLLIYWASTRESGVPDRFTGSGSGTDFTLTISSVQAEDLAVYYCKQSYSLWTFGGGTKLEIK",HI titer (3E2 mAb 하이브리도마 상층액),128
same,HI titer (3E2 mAb),131000
